Results from patent publication US9981005B2, “Methods for increasing DISC1 in a subject with schizophrenia or bipolar disorder by an antagonist inhibiting DISC1 binding to FBXW7” (The University Court of the University of Glasgow, priority 2013, dated 2018).
Where no end group is shown, it is not given here. [ ]: non-standard residue; d: D form. pT = C[C@@H](OP(=O)(O)O)[C@H](N)C(=O)O; NMeE = CN[C@@H](CCC(=O)O)C(=O)O; pS = N[C@@H](COP(=O)(O)O)C(=O)O; NMeD = CN[C@@H](CC(=O)O)C(=O)O

Target: FBXW7 (Homo sapiens, UniProt Q969H0)
Sequence (Q969H0 whole entry): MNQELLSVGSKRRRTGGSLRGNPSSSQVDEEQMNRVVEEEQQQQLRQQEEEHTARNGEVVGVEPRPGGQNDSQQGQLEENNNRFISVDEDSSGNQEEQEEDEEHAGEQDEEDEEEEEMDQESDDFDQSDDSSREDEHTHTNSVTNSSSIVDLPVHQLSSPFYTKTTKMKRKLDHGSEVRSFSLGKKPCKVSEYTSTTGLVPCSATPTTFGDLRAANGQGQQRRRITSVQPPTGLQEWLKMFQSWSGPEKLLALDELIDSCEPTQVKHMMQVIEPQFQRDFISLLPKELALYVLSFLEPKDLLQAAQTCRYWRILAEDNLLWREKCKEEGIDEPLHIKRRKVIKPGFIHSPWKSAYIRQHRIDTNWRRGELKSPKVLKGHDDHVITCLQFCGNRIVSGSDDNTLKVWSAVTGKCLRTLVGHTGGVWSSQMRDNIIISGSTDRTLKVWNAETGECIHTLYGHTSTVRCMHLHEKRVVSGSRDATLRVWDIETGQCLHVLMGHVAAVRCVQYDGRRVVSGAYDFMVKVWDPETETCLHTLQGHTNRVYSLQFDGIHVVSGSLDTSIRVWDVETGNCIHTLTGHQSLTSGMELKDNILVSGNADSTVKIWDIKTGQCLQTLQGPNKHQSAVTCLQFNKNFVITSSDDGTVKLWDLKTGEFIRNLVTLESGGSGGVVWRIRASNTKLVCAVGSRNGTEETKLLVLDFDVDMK
Test: Peptides immobilised on membranes screened for the ability to bind FBXW7
Type: binding
Excerpt: Peptides derived from DISC1 and containing the putative phospho-degron motif were immobilised on membranes and screened for the ability to bind FBXW7. […] (SEQ ID NO: 114).
The 7-mer peptide P-pT-P-P-G-pS-H (SEQ ID NO: 21) was used as the basis for further investigation. L- and D-forms of aspartic acid and glutamic acid (upper and lower case letters respectively) as well as N-methylated versions of each (designated “m”) were incorporated at positions 198 and 202.

Substance | binding to FBXW7
a-d-P-P-a-mE-h ([dA][dD]PP[dA][NMeE][dH]) [Peptide A165] | retain or have improved binding to FBXW7
a-mD-P-P-G-mE-H ([dA][NMeD]PPG[NMeE]H) [Peptide A51] | retain or have improved binding to FBXW7
P-d-P-P-G-mE-H (P[dD]PPG[NMeE]H) [Peptide 82] | retain or have improved binding to FBXW7
G-d-P-A-G-mE-K (G[dD]PAG[NMeE]K) [Peptide A192] | retain or have improved binding to FBXW7
a-d-P-P-a-mE-k ([dA][dD]PP[dA][NMeE][dK]) [Peptide A197] | retain or have improved binding to FBXW7
L-mD-P-P-G-mE-H (L[NMeD]PPG[NMeE]H) [Peptide A58] | retain or have improved binding to FBXW7
P-A-P-P-G-mE-H (PAPPG[NMeE]H) [Peptide A82] | retain or have improved binding to FBXW7
d-P-P-G-mE-H ([dD]PPG[NMeE]H) [Peptide A86] | retain or have improved binding to FBXW7
P-pT-P-P-G-pS-H [A185] (P[pT]PPG[pS]H) [Peptide A185] | retain or have improved binding to FBXW7
G-mD-P-p-G-mE-H (G[NMeD]P[dP]G[NMeE]H) [Peptide A56] | retain or have improved binding to FBXW7
a-d-P-P-a-mE-H ([dA][dD]PP[dA][NMeE]H) [Peptide A166] | retain or have improved binding to FBXW7
a-d-P-p-G-mE-H ([dA][dD]P[dP]G[NMeE]H) [Peptide A161] | retain or have improved binding to FBXW7
P-P-G-mE-H (PPG[NMeE]H) [Peptide A189] | retain or have improved binding to FBXW7
G-d-P-P-G-mE [Peptide A5] | retain or have improved binding to FBXW7
P-pT-P-P-G-pS-H [P-pT-P-P-G-pS-H] (P[pT]PPG[pS]H) | retain the ability to bind FBXW7
P-E-P-P-G-mD-H (PEPPG[NMeD]H) [Peptide 64] | retain or have improved binding to FBXW7
a-d-p-P-G-mE-H ([dA][dD][dP]PG[NMeE]H) [Peptide A162] | retain or have improved binding to FBXW7
P-E-P-P-G-mD (PEPPG[NMeD]) [Peptide A144] | retain or have improved binding to FBXW7
a-mE-P-P-G-mE-H ([dA][NMeE]PPG[NMeE]H) [Peptide A71] | retain or have improved binding to FBXW7
P-E-P-P-Q-mD-H (PEPPQ[NMeD]H) [Peptide A151] | retain or have improved binding to FBXW7

Substance | binding to FBXW7
a-d-p-p-a-mE-h ([dA][dD][dP][dP][dA][NMeE][dH]) [Peptide A169] | retain or have improved binding to FBXW7
a-d-P-p-a-mE-h ([dA][dD]P[dP][dA][NMeE][dH]) [Peptide A168] | retain or have improved binding to FBXW7
P-pT-P-P-G-pS-H [A119] (P[pT]PPG[pS]H) [Peptide A119] | retain or have improved binding to FBXW7
G-mE-P-P-q-mE-H (G[NMeE]PP[dQ][NMeE]H) [Peptide A73] | retain or have improved binding to FBXW7
P-E-P-P-G-d-H (PEPPG[dD]H) [Peptide 16] | retain or have improved binding to FBXW7
a-d-P-P-G-mE-h ([dA][dD]PPG[NMeE][dH]) [Peptide A164] | retain or have improved binding to FBXW7
P-A-P-P-G-mD-H (PAPPG[NMeD]H) [Peptide A102] | retain or have improved binding to FBXW7
a-e-P-P-G-mE-H ([dA][dE]PPG[NMeE]H) [Peptide A130] | retain or have improved binding to FBXW7
G-A-P-P-G-mE-H (GAPPG[NMeE]H) [Peptide A22] | retain or have improved binding to FBXW7
G-mD-P-P-G-mE (G[NMeD]PPG[NMeE]) [Peptide A45] | retain or have improved binding to FBXW7
P-d-P-P-G-mE (P[dD]PPG[NMeE]) [Peptide A85] | retain or have improved binding to FBXW7
GPEVPPTPPGSHSAFTSSFSFIRL (listed as Homo sapiens) | Detectable binding
P-pT-P-P-G-pS-H [A100] (P[pT]PPG[pS]H) [Peptide A100] | retain or have improved binding to FBXW7
a-d-p-p-G-mE-H ([dA][dD][dP][dP]G[NMeE]H) [Peptide A163] | retain or have improved binding to FBXW7
G-d-P-P-G-mE-H (G[dD]PPG[NMeE]H) [Peptide 173] | retain or have improved binding to FBXW7
G-mE-P-p-G-mE-H (G[NMeE]P[dP]G[NMeE]H) [Peptide A76] | retain or have improved binding to FBXW7
P-pT-P-P-G-pS-H [A80] (P[pT]PPG[pS]H) [Peptide A80] | retain or have improved binding to FBXW7
P-pT-P-P-G-pS-H [A139] (P[pT]PPG[pS]H) [Peptide A139] | retain or have improved binding to FBXW7
G-mD-P-P-Q-mE-H (G[NMeD]PPQ[NMeE]H) [Peptide A52] | retain or have improved binding to FBXW7

Next, values leading:

binding to FBXW7 | Substance
retain or have improved binding to FBXW7 | P-e-P-P-q-mE-H (P[dE]PP[dQ][NMeE]H) [Peptide A132]
retain or have improved binding to FBXW7 | l-e-P-P-G-mE-H ([dL][dE]PPG[NMeE]H) [Peptide A138]
retain or have improved binding to FBXW7 | L-e-P-P-G-mE-H (L[dE]PPG[NMeE]H) [Peptide A137]
retain or have improved binding to FBXW7 | p-d-P-P-G-mE-h ([dP][dD]PPG[NMeE][dH]) [Peptide A184]
retain or have improved binding to FBXW7 | G-e-P-P-G-mE-H (G[dE]PPG[NMeE]H) [Peptide 147]
retain or have improved binding to FBXW7 | G-d-P-P-Q-mE-H (G[dD]PPQ[NMeE]H) [Peptide A12]
retain or have improved binding to FBXW7 | P-e-p-P-G-mE-H (P[dE][dP]PG[NMeE]H) [Peptide A136]
retain or have improved binding to FBXW7 | G-d-p-p-G-mE-h (G[dD][dP][dP]G[NMeE][dH]) [Peptide A174]
retain or have improved binding to FBXW7 | L-d-P-P-G-mE-H (L[dD]PPG[NMeE]H) [Peptide A98]
retain or have improved binding to FBXW7 | G-d-p-p-G-mE-H (G[dD][dP][dP]G[NMeE]H) [Peptide A172]
retain or have improved binding to FBXW7 | G-d-P-p-a-mE-h (G[dD]P[dP][dA][NMeE][dH]) [Peptide A171]
retain or have improved binding to FBXW7 | P-e-P-p-G-mE-H (P[dE]P[dP]G[NMeE]H) [Peptide A135]
retain or have improved binding to FBXW7 | G-d-P-P-a-mE-k (G[dD]PP[dA][NMeE][dK]) [Peptide A196]
retain or have improved binding to FBXW7 | G-d-p-p-a-mE-H (G[dD][dP][dP][dA][NMeE]H) [Peptide A173]
retain or have improved binding to FBXW7 | e-P-P-G-mE-H ([dE]PPG[NMeE]H) [Peptide A26]
retain or have improved binding to FBXW7 | l-mE-P-P-G-mE-H ([dL][NMeE]PPG[NMeE]H) [Peptide A79]
retain or have improved binding to FBXW7 | P-e-P-P-G-mE (P[dE]PPG[NMeE]) [Peptide A124]

binding to FBXW7 | Substance
retain or have improved binding to FBXW7 | l-d-P-P-G-mE-H ([dL][dD]PPG[NMeE]H) [Peptide A99]
retain or have improved binding to FBXW7 | G-d-P-P-q-mE-H (G[dD]PP[dQ][NMeE]H) [Peptide A13]
retain or have improved binding to FBXW7 | G-d-P-a-G-mE-k (G[dD]P[dA]G[NMeE][dK]) [Peptide A193]
retain or have improved binding to FBXW7 | G-d-P-p-a-mE-H (G[dD]P[dP][dA][NMeE]H) [Peptide A170]
retain or have improved binding to FBXW7 | P-d-P-P-G-mE-K (P[dD]PPG[NMeE]K) [Peptide A194]
retain or have improved binding to FBXW7 | p-d-P-P-G-mE-H ([dP][dD]PPG[NMeE]H) [Peptide A181]
retain or have improved binding to FBXW7 | P-e-P-P-Q-mE-H (P[dE]PPQ[NMeE]H) [Peptide A131]
retain or have improved binding to FBXW7 | P-e-P-P-G-mD-H (P[dE]PPG[NMeD]H) [Peptide A101]
retain or have improved binding to FBXW7 | G-e-P-P-G-mE (G[dE]PPG[NMeE]) [Peptide A25]
retain or have improved binding to FBXW7 | G-d-p-P-G-mE-H (G[dD][dP]PG[NMeE]H) [Peptide A180]
retain the ability to bind FBXW7 | P-pT-P-P-G-pS-H-S (P[pT]PPG[pS]HS)
retain or have improved binding to FBXW7 | P-d-p-P-G-mE-H (P[dD][dP]PG[NMeE]H) [Peptide A97]
retain or have improved binding to FBXW7 | P-d-P-P-G-mE-k (P[dD]PPG[NMeE][dK]) [Peptide A195]
retain or have improved binding to FBXW7 | G-d-p-p-a-mE-h (G[dD][dP][dP][dA][NMeE][dH]) [Peptide A175]
retain or have improved binding to FBXW7 | P-e-P-P-G-mE-H (P[dE]PPG[NMeE]H) [Peptide 55]
retain the ability to bind FBXW7 | P-P-pT-P-P-G-pS-H (PP[pT]PPG[pS]H)
